Laboratory results published in IntAct's records for PubMed 19037259.

B1: Protein VAC14 homolog (Homo sapiens), Q08AM6 (parent)
chain: MNPEKDFAPLTPNIVRALNDKLYEKRKVAALEIEKLVREFVAQNNTVQIKHVIQTLSQEFALSQHPHSRKGGLIGLAACSIALGKDSGLYLKELIEPVLTCFNDADSRLRYYACEALYNIVKVARGAVLPHFNVLFDGLSKLAADPDPNVKSGSELLDRLLKDIVTESNKFDLVSFIPLLRERIYSNNQYARQFIISWILVLESVPDINLLDYLPEILDGLFQILGDNGKEIRKMCEVVLGEFLKEIKKNPSSVKFAEMANILVIHCQTTDDLIQLTAMCWMREFIQLAGRVMLPYSSGILTAVLPCLAYDDRKKSIKEVANVCNQSLMKLVTPEDDELDELRPGQRQAEPTPDDALPKQEGTASGGPDGSCDSSFSSGISVFTAASTERAPVTLHLDGIVQVLNCHLSDTAIGMMTRIAVLKWLYHLYIKTPRKMFRHTDSLFPILLQTLSDESDEVILKDLEVLAEIASSPAGQTDDPGPLDGPDLQASHSELQVPTPGRAGLLNTSGTKGLECSPSTPTMNSYFYKFMINLLKRFSSERKLLEVRGPFIIRQLCLLLNAENIFHSMADILLREEDLKFASTMVHALNTILLTSTELFQLRNQLKDLKTLESQNLFCCLYRSWCHNPVTTVSLCFLTQNYRHAYDLIQKFGDLEVTVDFLAEVDKLVQLIECPIFTYLRLQLLDVKNNPYLIKALYGLLMLLPQSSAFQLLSHRLQCVPNPELLQTEDSLKAAPKSQKADSPSIDYAELLQHFEKVQNKHLEVRHQRSGRGDHLDRRVVL
B2: Vacuole morphology and inheritance protein 14 (Saccharomyces cerevisiae), Q06708 (parent)
chain: MEKSIAKGLSDKLYEKRKAAALELEKLVKQCVLEGDYDRIDKIIDELCRDYAYALHQPMARNAGLMGLAATAIALGINDVGRYLRNILPPVLACFGDQNDQVRFYACESLYNIAKIAKGEILVYFNEIFDVLCKISADTENSVRGAAELLDRLIKDIVAERASNYISIVNNGSHGLLPAIKTDPISGDVYQEEYEQDNQLAFSLPKFIPLLTERIYAINPDTRVFLVDWLKVLLNTPGLELISYLPSFLGGLFTFLGDSHKDVRTVTHTLMDSLLHEVDRISKLQTEIKMKRLERLKMLEDKYNNSSTPTKKADGALIAEKKKTLMTALGGLSKPLSMETDDTKLSNTNETDDERHLTSQEQLLDSEATSQEPLRDGEEYIPGQDINLNFPEVITVLVNNLASSEAEIQLIALHWIQVILSISPNVFIPFLSKILSVLLKLLSDSDPHITEIAQLVNGQLLSLCSSYVGKETDGKIAYGPIVNSLTLQFFDSRIDAKIACLDWLILIYHKAPNQILKHNDSMFLTLLKSLSNRDSVLIEKALSLLQSLCSDSNDNYLRQFLQDLLTLFKRDTKLVKTRANFIMRQISSRLSPERVYKVISSILDNYNDTTFVKMMIQILSTNLITSPEMSSLRNKLRTCEDGMFFNSLFKSWCPNPVSVISLCFVAENYELAYTVLQTYANYELKLNDLVQLDILIQLFESPVFTRMRLQLLEQQKHPFLHKCLFGILMIIPQSKAFETLNRRLNSLNIWTSQSYVMNNYIRQRENSNFCDSNSDISQRSVSQSKLHFQELINHFKAVSEEDEYSSDMIRLDHGANNKSLLLGSFLDGIDEDKQEIVTPISPMNEAINEEMESPNDNSSVILKDSGSLPFNRNVSDKLKK
B3: Vacuole morphology and inheritance protein 14 (Saccharomyces cerevisiae), Q06708 (parent)
chain: B2 chain
partner: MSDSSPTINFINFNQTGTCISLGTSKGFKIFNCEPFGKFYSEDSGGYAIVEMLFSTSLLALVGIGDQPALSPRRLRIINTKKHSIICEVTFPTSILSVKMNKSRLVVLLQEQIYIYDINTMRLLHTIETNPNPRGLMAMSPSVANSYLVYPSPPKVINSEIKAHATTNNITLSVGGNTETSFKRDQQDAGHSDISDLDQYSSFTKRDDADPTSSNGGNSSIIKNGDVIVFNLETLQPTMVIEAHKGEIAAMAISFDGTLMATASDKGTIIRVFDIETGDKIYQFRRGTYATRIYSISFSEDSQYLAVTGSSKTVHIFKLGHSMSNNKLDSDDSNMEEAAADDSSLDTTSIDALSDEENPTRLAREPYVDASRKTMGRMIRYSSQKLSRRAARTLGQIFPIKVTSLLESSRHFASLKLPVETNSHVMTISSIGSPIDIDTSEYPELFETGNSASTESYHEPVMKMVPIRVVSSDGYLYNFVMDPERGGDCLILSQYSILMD
B4: Vacuole morphology and inheritance protein 14 (Saccharomyces cerevisiae), Q06708 (parent)
chain: B2 chain
partner: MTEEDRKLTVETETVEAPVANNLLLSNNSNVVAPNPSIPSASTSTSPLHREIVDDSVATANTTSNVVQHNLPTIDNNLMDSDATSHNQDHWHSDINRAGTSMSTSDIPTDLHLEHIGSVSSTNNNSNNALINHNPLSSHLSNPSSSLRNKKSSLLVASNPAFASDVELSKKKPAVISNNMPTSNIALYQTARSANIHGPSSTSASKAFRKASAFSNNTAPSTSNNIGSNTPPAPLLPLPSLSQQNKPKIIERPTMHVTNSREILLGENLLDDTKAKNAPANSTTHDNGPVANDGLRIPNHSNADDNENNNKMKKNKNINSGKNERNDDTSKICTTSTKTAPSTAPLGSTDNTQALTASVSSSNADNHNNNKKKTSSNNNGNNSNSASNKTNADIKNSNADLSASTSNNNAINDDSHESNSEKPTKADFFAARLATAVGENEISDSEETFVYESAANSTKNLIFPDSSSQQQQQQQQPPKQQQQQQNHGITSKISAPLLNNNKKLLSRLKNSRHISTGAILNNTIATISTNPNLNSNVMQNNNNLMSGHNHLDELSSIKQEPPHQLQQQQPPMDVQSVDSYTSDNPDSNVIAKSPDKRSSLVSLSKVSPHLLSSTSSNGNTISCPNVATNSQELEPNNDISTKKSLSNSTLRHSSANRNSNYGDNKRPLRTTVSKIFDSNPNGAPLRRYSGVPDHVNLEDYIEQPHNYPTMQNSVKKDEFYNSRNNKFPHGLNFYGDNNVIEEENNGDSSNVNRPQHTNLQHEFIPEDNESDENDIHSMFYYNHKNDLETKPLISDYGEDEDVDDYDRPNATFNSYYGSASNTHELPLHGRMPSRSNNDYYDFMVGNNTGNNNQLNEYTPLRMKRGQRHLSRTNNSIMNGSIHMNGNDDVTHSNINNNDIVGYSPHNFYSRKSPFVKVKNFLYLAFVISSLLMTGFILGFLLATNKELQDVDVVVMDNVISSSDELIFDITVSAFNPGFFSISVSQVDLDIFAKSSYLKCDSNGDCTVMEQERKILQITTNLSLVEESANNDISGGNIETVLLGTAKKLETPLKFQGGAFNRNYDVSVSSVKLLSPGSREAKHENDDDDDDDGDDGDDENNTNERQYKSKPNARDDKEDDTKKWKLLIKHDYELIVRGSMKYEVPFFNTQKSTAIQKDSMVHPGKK
B5: Protein VAC14 homolog (Homo sapiens), Q08AM6 (parent)
chain: B1 chain
partner: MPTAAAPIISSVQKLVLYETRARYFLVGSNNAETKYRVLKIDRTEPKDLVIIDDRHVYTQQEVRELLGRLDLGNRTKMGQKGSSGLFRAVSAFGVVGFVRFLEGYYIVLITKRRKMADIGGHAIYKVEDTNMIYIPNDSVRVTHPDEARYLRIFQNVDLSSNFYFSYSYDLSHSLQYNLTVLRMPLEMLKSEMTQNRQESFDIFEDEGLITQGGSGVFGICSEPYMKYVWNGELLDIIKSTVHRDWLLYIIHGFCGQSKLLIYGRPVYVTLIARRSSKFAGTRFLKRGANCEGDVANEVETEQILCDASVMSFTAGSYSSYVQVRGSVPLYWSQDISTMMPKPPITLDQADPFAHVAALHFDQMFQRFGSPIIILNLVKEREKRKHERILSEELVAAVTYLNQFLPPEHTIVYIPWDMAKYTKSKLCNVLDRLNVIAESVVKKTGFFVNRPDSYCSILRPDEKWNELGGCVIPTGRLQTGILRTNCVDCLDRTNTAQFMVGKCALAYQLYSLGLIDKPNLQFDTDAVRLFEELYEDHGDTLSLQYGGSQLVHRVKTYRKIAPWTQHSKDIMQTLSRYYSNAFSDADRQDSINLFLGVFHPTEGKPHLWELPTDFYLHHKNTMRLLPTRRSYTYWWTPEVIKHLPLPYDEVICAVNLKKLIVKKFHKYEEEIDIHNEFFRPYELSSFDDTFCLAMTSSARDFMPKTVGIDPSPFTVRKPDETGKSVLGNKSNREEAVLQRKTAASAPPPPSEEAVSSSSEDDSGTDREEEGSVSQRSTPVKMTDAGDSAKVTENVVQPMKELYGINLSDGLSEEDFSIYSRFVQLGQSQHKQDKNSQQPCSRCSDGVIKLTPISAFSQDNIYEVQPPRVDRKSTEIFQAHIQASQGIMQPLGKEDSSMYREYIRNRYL

Variants of: B1
Settings: with fyv1_human PIKFYVE

| effect of a mutation on the interaction | Variant |
| --- | --- |
| disrupting interaction | L156R |

Variants of: B2
Settings: with fab1_yeast FAB1, P34756
Chain of fab1_yeast FAB1, P34756 (P34756 whole entry): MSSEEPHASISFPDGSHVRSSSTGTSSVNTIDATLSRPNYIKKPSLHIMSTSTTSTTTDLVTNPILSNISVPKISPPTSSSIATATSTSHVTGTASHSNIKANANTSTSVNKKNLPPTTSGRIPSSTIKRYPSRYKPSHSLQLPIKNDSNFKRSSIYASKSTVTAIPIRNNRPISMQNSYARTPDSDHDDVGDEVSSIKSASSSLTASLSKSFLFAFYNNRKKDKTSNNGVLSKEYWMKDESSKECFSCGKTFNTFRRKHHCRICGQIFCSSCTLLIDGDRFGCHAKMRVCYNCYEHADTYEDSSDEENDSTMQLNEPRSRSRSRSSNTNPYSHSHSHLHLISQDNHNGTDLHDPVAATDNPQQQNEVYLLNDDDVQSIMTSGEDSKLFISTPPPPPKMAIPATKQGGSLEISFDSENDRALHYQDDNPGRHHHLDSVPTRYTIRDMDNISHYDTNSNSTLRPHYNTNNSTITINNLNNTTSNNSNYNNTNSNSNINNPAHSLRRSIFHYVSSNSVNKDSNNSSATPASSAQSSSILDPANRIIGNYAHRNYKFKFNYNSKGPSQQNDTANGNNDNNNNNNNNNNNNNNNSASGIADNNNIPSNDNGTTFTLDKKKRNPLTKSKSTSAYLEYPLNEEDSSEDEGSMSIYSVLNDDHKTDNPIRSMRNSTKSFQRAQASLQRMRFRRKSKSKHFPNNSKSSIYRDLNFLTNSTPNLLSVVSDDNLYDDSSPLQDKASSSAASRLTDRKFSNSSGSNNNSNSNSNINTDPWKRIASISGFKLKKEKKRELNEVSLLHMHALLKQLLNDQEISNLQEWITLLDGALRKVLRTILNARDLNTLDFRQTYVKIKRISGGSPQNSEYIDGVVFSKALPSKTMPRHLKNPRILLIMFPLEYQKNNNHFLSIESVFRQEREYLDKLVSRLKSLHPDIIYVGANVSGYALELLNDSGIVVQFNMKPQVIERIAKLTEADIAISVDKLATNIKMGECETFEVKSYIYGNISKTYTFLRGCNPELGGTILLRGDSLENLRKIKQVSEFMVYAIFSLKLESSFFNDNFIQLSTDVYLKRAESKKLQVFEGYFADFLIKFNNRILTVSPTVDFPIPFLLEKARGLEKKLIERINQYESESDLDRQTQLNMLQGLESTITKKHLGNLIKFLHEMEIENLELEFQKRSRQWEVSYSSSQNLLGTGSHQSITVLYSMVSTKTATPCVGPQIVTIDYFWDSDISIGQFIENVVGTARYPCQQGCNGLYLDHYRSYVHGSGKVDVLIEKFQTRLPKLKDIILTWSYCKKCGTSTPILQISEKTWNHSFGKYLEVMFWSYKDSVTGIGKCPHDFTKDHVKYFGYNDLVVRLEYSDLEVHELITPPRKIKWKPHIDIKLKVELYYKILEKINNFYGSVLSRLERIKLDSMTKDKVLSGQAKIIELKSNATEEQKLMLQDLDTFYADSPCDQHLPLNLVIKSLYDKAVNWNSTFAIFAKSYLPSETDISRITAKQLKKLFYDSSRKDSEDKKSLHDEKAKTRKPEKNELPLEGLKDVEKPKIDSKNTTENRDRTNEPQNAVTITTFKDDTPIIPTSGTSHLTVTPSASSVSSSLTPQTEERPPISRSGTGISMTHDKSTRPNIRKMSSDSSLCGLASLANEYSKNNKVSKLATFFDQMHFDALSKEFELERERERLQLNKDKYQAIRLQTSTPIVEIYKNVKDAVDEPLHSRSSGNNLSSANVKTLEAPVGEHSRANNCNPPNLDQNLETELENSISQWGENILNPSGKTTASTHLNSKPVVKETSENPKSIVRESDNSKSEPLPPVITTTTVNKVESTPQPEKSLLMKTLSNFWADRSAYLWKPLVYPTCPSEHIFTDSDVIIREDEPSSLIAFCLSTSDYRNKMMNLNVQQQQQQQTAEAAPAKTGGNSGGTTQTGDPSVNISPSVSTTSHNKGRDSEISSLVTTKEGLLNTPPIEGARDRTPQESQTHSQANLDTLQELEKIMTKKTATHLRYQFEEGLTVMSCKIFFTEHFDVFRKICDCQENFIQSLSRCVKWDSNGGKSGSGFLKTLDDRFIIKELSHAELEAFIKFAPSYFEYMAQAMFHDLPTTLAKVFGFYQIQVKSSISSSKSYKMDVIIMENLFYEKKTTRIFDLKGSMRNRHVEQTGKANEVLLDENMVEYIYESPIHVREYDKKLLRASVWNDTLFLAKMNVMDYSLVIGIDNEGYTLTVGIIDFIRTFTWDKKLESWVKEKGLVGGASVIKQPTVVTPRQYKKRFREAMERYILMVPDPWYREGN

| effect of a mutation on the interaction | Variant |
| --- | --- |
| disrupting interaction | L149R |

Variants of: B3
Settings: with atg18_yeast ATG18, P43601

| effect of a mutation on the interaction | Variant |
| --- | --- |
| disrupting interaction | R61K |
| disrupting interaction | Q101R |
| disrupting interaction | L329I |
| disrupting interaction | H56Y |

Variants of: B3
Settings: with atg18_yeast ATG18, P43601
Remark: another data set of the same source

| effect of a mutation on the interaction | Variant |
| --- | --- |
| disrupting interaction | L149R |

Variants of: B4
Settings: with vac7_yeast VAC7, P53950

| effect of a mutation on the interaction | Variant |
| --- | --- |
| disrupting interaction | R61K |
| disrupting interaction | H56Y |
| disrupting interaction | Q101R |
| disrupting interaction | L329I |

Variants of: B4
Settings: with vac7_yeast VAC7, P53950
Remark: another data set of the same source

| effect of a mutation on the interaction | Variant |
| --- | --- |
| disrupting interaction | L149R |

Variants of: B5
Settings: with fig4_human FIG4, Q92562

| effect of a mutation on the interaction | Variant |
| --- | --- |
| disrupting interaction | L156R |
